According to PMC3615143:

Molecular target: Glut1 (UniProt P11166)
Assay: Flag IP, HA-TXNIP blot
Conditions: reference: HA-TXNIP wild type, 2DG-treated cells; sites S308

binding against the reference: stronger
Substance: TXNIP (from UniProt Q9H3M7) HA-TXNIP S308A, 2DG-treated cells
